Test results taken from patent US20190071493A1 (SCHOLAR ROCK, published 2019).

T1: proTGFβ3 (Homo sapiens (Human), UniProt P10600 24-412)
T1 sequence: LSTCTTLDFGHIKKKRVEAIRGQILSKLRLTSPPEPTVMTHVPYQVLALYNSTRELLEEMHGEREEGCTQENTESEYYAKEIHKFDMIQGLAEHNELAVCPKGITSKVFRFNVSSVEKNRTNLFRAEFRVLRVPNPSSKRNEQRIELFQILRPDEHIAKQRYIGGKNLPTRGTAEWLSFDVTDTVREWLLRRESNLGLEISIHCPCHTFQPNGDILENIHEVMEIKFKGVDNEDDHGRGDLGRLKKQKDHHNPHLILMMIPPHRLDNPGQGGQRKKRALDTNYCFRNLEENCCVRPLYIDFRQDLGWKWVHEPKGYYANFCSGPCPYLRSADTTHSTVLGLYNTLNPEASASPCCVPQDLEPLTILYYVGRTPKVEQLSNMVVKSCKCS

T2: proTGFβ2 (Chlorocebus aethiops (Green monkey) …, UniProt P61811 20-414)
T2 sequence: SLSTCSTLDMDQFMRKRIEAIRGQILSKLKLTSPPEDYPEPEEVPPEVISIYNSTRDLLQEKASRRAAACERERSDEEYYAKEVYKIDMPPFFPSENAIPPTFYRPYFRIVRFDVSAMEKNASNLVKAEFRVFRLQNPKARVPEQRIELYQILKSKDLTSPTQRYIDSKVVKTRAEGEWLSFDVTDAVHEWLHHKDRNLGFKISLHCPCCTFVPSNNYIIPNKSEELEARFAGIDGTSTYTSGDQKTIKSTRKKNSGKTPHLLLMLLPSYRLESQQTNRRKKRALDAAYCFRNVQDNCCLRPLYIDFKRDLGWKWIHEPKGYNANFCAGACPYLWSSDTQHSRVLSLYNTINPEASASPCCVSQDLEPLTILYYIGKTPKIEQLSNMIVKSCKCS

B1: Ab1 (antibody, human IgG4 S228P, lambda, V domains shown)
VH: EVQLVESGGGLVQPGRSLRLSCAASGFTFSSYGMHWVRQAPGKGLEWVAVISYDGSNKYYADSVKGRFTISRDNSKNTLYLQMNSLRAEDTAVYYCARDIRPYGDYSAAFDIWGQGTLVTVSS
VL: NFMLTQPHSVSESPGKTVTISCTGSSGSIASNYVQWYQQRPGSAPSIVIFEDNQRPSGAPDRFSGSIDSSSNSASLTISGLKTEDEADYYCQSYDSSNHGGVFGGGTQLTVLG
notes: also called antibody Ab1; clone Ab1
B2: Ab2 (antibody, V domains shown)
VH: EVQLVQSGAEMKKPGESLKISCKGSGYNFASDWIGWVRQTPGKGLEWMGVIYPGDSDTRYSASFQGQVTISADKSINTAYLQWSSLKASDTAMYYCASAAGIAAAGHVTAFDIWGQGTMVTVSS
VL: not shown
notes: also called antibody Ab2; clone Ab2

Assays:
[1] = molecular target: T1, proTGFβ3; experiment: ELISA
[2] = molecular target: T2, proTGFβ2; experiment: ELISA
[3] = molecular target: rat LTBP1-proTGFβ1 complex (rat, UniProt Q00918 339-1712; P17246 30-390); experiment: Octet (BLI) binding assay as in Table 6
rat LTBP1-proTGFβ1 complex, sequence (Q00918 339-1712, chain 1 of 2): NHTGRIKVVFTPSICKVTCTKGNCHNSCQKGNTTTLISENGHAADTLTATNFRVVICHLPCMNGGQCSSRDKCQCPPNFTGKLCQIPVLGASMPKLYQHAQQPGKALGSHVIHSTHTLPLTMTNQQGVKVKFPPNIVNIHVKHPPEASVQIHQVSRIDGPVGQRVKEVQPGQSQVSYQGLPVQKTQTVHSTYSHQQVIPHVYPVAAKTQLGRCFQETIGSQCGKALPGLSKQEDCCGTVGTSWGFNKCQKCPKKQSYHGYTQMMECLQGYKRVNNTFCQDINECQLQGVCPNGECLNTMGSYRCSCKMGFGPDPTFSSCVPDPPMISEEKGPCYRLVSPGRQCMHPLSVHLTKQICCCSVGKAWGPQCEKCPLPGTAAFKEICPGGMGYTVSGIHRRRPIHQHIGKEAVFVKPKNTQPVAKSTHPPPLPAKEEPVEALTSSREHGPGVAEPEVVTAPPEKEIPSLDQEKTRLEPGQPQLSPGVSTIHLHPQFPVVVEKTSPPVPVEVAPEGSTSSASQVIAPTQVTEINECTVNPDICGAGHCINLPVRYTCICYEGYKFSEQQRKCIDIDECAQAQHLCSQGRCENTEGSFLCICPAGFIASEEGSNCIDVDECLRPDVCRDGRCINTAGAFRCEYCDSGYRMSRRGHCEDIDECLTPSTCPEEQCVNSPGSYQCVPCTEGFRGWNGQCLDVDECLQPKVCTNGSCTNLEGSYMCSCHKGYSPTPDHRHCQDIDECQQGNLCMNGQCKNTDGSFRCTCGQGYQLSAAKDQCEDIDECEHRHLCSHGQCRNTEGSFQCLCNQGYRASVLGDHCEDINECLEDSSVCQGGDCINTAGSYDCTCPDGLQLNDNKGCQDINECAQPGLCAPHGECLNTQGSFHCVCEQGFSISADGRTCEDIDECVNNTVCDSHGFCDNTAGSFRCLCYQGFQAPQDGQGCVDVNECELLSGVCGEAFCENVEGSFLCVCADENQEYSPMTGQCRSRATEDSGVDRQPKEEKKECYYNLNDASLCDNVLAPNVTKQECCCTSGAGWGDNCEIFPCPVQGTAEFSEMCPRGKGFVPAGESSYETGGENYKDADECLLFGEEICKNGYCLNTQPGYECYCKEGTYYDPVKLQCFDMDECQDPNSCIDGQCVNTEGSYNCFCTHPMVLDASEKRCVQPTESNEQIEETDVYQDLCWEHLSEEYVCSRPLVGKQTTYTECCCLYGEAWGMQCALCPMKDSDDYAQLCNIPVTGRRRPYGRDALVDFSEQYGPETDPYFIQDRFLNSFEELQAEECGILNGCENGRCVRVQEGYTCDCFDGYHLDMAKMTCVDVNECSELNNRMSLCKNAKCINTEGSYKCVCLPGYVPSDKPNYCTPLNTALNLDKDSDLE
rat LTBP1-proTGFβ1 complex, sequence (P17246 30-390, chain 2 of 2): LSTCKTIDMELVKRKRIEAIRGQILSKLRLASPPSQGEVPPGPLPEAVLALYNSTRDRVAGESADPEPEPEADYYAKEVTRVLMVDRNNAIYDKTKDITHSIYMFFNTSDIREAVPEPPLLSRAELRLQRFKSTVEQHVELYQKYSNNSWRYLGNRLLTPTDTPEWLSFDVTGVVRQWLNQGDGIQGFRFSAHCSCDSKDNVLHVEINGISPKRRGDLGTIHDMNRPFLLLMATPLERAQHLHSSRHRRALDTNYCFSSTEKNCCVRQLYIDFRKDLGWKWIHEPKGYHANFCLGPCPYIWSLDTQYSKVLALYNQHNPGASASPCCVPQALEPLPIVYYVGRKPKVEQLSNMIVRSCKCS
Protocol: a. Dilute both antibodies to 50 μg/mL in 300 μl of 1x buffer in row A. b. Add 200 μl of buffer to the rest of each column c. Transfer 100 μl down the column to make 3-fold dilutions

Binder | binding result [1] | binding result [2] | binding result [3]
B1 | no binding | no binding | no binding
B2 | no binding | no binding | 
